Article PMC8217500

Experiments:
[1] = biological target: Fc-tagged SARS-CoV-2 spike receptor-binding domain (RBD) (SARS-CoV-2) (UniProt P0DTC2); assay: BLI; Fc-tagged RBD (20 ug/ml) loaded on anti-hIgG Fc Capture (AHC) biosensors, Fab in solution; room temperature; 1x PBS pH 7.4, 0.01% BSA, 0.002% Tween 20; 1:1 binding model
[2] = biological target: Fc-tagged SARS-CoV-2 RBD (SARS-CoV-2) (UniProt P0DTC2); assay: BLI; Octet Red96e, room temperature; Fc-tagged RBD (20 μg/ml) loaded on anti-hIgG Fc Capture (AHC) biosensors, Fab in solution; 1× kinetics buffer (1× PBS pH 7.4, 0.01% BSA, 0.002% Tween 20); 60 s association, 60 s dissociation; 1:1 binding model
[3] = biological target: Fc-tagged SARS-CoV-2 receptor-binding domain (RBD), wild type (SARS-CoV-2) (UniProt P0DTC2); assay: BLI; Fc-tagged RBD (20 ug/ml) loaded on anti-hIgG Fc Capture (AHC) biosensors, Fab in solution at four to five concentrations; Octet Red96e, room temperature, 1x kinetics buffer (1x PBS pH 7.4, 0.01% w/v BSA, 0.002% v/v Tween 20); 1:1 binding model

Substance | Kd [1] | Kd [2] | further results
COV107-23 Fab, Y58 variant (heavy chain F58Y) | 362 nM | – | –
COV107-23 paired with the light chain of COVD21-C8 (Fab) | – | > 1000 nM | –
COVD21-C8 heavy chain paired with the light chain of COV107-23 (Fab) | – | > 1000 nM | –
CC12.3 Fab, wild type | – | – | Kd [3]: 14 nM
CC12.3 Fab, F58 (wild type) | 14 nM | – | –
